In patent US20120219562A1 (AbbVie / Abbott, published 2012):
Where a chain is given by its changes, count along the chain named.

What was measured:
[1] = biological target: T1, human interleukin 12 (p70 heterodimer of p35 and p40) (human, UniProt P29459 23-219; P29460 23-328); assay: SPR (BIAcore), off-rate
T1 construct: Recombinant human IL-12; also called hIL-12; IL-12
T1 sequence (looked up) 1: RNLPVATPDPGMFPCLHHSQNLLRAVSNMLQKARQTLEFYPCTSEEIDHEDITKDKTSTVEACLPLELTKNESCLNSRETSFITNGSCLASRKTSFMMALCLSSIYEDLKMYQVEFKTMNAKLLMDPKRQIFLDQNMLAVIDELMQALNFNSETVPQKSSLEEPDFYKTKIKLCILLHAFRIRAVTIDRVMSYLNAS
T1 sequence (looked up) 2: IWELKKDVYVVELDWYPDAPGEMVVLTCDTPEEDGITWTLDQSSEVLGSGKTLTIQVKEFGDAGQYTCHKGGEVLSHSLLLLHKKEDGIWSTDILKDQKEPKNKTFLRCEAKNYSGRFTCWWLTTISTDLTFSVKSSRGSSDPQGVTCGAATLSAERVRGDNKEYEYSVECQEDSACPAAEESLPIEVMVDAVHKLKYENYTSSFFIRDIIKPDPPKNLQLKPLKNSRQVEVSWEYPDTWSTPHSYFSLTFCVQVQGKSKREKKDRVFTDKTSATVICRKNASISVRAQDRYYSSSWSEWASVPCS

[2] = biological target: T2, human interleukin 12 (human, UniProt P29459 23-219; P29460 23-328); assay: SPR (BIAcore)
T2 construct: heterodimer of p35 and p40 linked by a disulfide bridge; also called hIL-12; IL-12
T2 sequence (looked up) 1: T1 sequence (looked up) 1
T2 sequence (looked up) 2: T1 sequence (looked up) 2

B1: SEQ ID NO: 477 (Y61, T at L30) (antibody, V domains shown)
VH: QVQLVQSGGGVVQPGRSLRLSCAASGFTFSSYGMHWVRQAPGKGLEWVAFIRYDGSNKYYADSVKGRFTISRDNSKNTLYLQMKSLRAEDTAVYYCKTHGSHDNWGQGTMVTVSS
VL: SYVLTQPPSVSGTPGQRVTISCSGGRSNIGTNTVKWYQQLPGTAPKLLIYGNDQRPSGVPDRFSGSKSGTSASLAITGVQAEDEADYYCQSYDRGTHPALLFGTGTKVTVLG
Q: B1 was tested. Which koff [1] did it give?
A: The koff was 0.000226 s⁻¹.

B2: C10 (antibody, V domains shown)
VH: B1 VH
VL: B1 VL with T31S, T96N, H97S, A99I, L100P, L101T
Q: For B2, which koff [2] is on record?
A: Its koff is 0.0031 s⁻¹.

B3: 43-E9 (antibody, V domains shown)
VH: B1 VH
VL: B1 VL with T31S, H97I, A99S, L100I, L101E
Q: Which koff [2] does the source give for B3 here?
A: The koff was 0.0008 s⁻¹.

B4: M2 D5 (antibody, V domains shown)
VH: B1 VH
VL: B1 VL with T31S, R94S, G95S, T96S, H97T, P98G, A99S, L100R, L101V
Q: How did the koff [2] turn out when B4 was run?
A: Its koff is 0.0518 s⁻¹.

B5: B6 (antibody, V domains shown)
VH: B1 VH
VL: SYVLTQPPSVSGTPGQRVTISCSGGRSNIGSNTVKWYQQLPGTAPKLLIYGNDQRPSGVPDRFSGSKSGTSASLAITGVQAEDEADYYCQSYDSGSLRRILFGTGTKVTVL
Q: For B5, which koff [2] is on record?
A: The koff was 0.00758 s⁻¹.

B6: M2 E2 (antibody, V domains shown)
VH: B1 VH
VL: B5 VL with S94N, S96F, L97T, R98G, R99S, I100R, L101V
Q: Which koff [2] does the source give for B6 here?
A: The koff was 0.0477 s⁻¹.

B7: M2 D4 (antibody, V domains shown)
VH: B1 VH
VL: B1 VL with T31S, D93E, R94T, G95S, T96F, H97T, P98G, A99S, L100R, L101V
Q: How did the koff [2] turn out when B7 was run?
A: Its koff is 0.0581 s⁻¹.

B8: M2 F1 (antibody, V domains shown)
VH: B1 VH
VL: B1 VL with T31S, R94S, G95D, T96V, H97T, P98G, A99S, L100R, L101V
Q: For B8, which koff [2] is on record?
A: Its koff is 0.0616 s⁻¹.

B9: A8 (antibody, V domains shown)
VH: B1 VH
VL: B5 VL with S94R, S96K, L97S, R98N, R99K, I100M
Q: With B9 as the binder, how does the koff [2] read?
A: Its koff is 0.00237 s⁻¹.

B10: 136-9 (antibody, V domains shown)
VH: B1 VH with K97T, N104D
VL: B5 VL with S91T, S94I, G95S, S96E, L97S, R98G, R99S, I100R, L101V
Q: How did the koff [2] turn out when B10 was run?
A: The koff was 0.0032 s⁻¹.

B11: M2 D6 (antibody, V domains shown)
VH: B1 VH
VL: B1 VL with T31S, R94S, T96F, H97T, P98A, A99S, L100R, L101V
Q: B11 was tested. Which koff [2] did it give?
A: The koff was 0.0501 s⁻¹.

B12: M2 E6 (antibody, V domains shown)
VH: B1 VH
VL: B1 VL with T31S, R94T, T96F, H97T, P98K, A99S, L100R, L101V
Q: For B12, which koff [2] is on record?
A: Its koff is 0.00977 s⁻¹.

B13: 43-E3 (antibody, V domains shown)
VH: B1 VH
VL: B1 VL with T31S, T96S, L100A, L101E
Q: With B13 as the binder, how does the koff [2] read?
A: Its koff is 0.0008 s⁻¹.

B14: C4 (antibody, V domains shown)
VH: B1 VH
VL: B5 VL with S94R, S96T, L97P, R98N, R99N, I100S, L101F
Q: B14 was tested. Which koff [2] did it give?
A: The koff was 0.00323 s⁻¹.

B15: M2 D3 (antibody, V domains shown)
VH: B1 VH
VL: B1 VL with T31S, R94N, G95R, T96L, H97T, P98G, A99S, L100R, L101V
Q: With B15 as the binder, how does the koff [2] read?
A: The koff was 0.0333 s⁻¹.

B16: M2 H5 (antibody, V domains shown)
VH: B1 VH
VL: B1 VL with T31S, R94A, T96F, H97T, P98G, A99S, L100R, L101V
Q: B16 was tested. Which koff [2] did it give?
A: Its koff is 0.0099 s⁻¹.

B17: M2 E1 (antibody, V domains shown)
VH: B1 VH
VL: B1 VL with T31S, S91T, R94K, T96F, H97T, P98G, A99S, L100S, L101V
Q: With B17 as the binder, how does the koff [2] read?
A: The koff was 0.0532 s⁻¹.

B18: C2 (antibody, V domains shown)
VH: B1 VH
VL: B5 VL with S94R, S96L, L97N, R98P, R99S, I100A, L101T
Q: How did the koff [2] turn out when B18 was run?
A: The koff was 0.00223 s⁻¹.

B19: SEQ ID NO: 494 (Y61, Y at L32) (antibody, V domains shown)
VH: B1 VH
VL: B1 VL with T31S, T33Y
Q: B19 was tested. Which koff [1] did it give?
A: Its koff is 0.000213 s⁻¹.

B20: SEQ ID NO: 480 (Y61, E at L31) (antibody, V domains shown)
VH: B1 VH
VL: B1 VL with T31S, N32E
Q: For B20, which koff [1] is on record?
A: Its koff is 0.000384 s⁻¹.

B21: SEQ ID NO: 495 (Y61, H at L32) (antibody, V domains shown)
VH: B1 VH
VL: B1 VL with T31S, T33H
Q: With B21 as the binder, how does the koff [1] read?
A: Its koff is 0.00026 s⁻¹.

B22: SEQ ID NO: 483 (Y61, H at L31) (antibody, V domains shown)
VH: B1 VH
VL: B1 VL with T31S, N32H
Q: Which koff [1] does the source give for B22 here?
A: Its koff is 0.000315 s⁻¹.

B23: SEQ ID NO: 492 (Y61, C at L32) (antibody, V domains shown)
VH: B1 VH
VL: B1 VL with T31S, T33C
Q: For B23, which koff [1] is on record?
A: The koff was 0.00381 s⁻¹.

B24: SEQ ID NO: 499 (Y61, Q at L32) (antibody, V domains shown)
VH: B1 VH
VL: B1 VL with T31S, T33Q
Q: For B24, which koff [1] is on record?
A: Its koff is 0.00247 s⁻¹.

B25: SEQ ID NO: 498 (Y61, N at L32) (antibody, V domains shown)
VH: B1 VH
VL: B1 VL with T31S, T33N
Q: For B25, which koff [1] is on record?
A: The koff was 0.00197 s⁻¹.

B26: SEQ ID NO: 486 (Y61, Q at L31) (antibody, V domains shown)
VH: B1 VH
VL: B1 VL with T31S, N32Q
Q: B26 was tested. Which koff [1] did it give?
A: The koff was 0.000292 s⁻¹.

B27: SEQ ID NO: 491 (Y61, D at L32) (antibody, V domains shown)
VH: B1 VH
VL: B1 VL with T31S, T33D
Q: Which koff [1] does the source give for B27 here?
A: The koff was 0.000252 s⁻¹.

B28: SEQ ID NO: 481 (Y61, S at L31) (antibody, V domains shown)
VH: B1 VH
VL: B1 VL with T31S, N32S
Q: With B28 as the binder, how does the koff [1] read?
A: The koff was 0.000392 s⁻¹.

B29: SEQ ID NO: 497 (Y61, R at L32) (antibody, V domains shown)
VH: B1 VH
VL: B1 VL with T31S, T33R
Q: Which koff [1] does the source give for B29 here?
A: The koff was 0.0069 s⁻¹.

B30: SEQ ID NO: 478 (Y61, P at L30) (antibody, V domains shown)
VH: B1 VH
VL: B1 VL with T31P
Q: For B30, which koff [1] is on record?
A: The koff was 0.00025 s⁻¹.

B31: SEQ ID NO: 488 (Y61, G at L31) (antibody, V domains shown)
VH: B1 VH
VL: B1 VL with T31S, N32G
Q: Which koff [1] does the source give for B31 here?
A: The koff was 0.000366 s⁻¹.

B32: SEQ ID NO: 479 (Y61, D at L31) (antibody, V domains shown)
VH: B1 VH
VL: B1 VL with T31S, N32D
Q: B32 was tested. Which koff [1] did it give?
A: Its koff is 0.00058 s⁻¹.

B33: SEQ ID NO: 487 (Y61, T at L31) (antibody, V domains shown)
VH: B1 VH
VL: B1 VL with T31S, N32T
Q: For B33, which koff [1] is on record?
A: Its koff is 0.000309 s⁻¹.

B34: SEQ ID NO: 482 (Y61, Y at L31) (antibody, V domains shown)
VH: B1 VH
VL: B1 VL with T31S, N32Y
Q: Which koff [1] does the source give for B34 here?
A: The koff was 0.000357 s⁻¹.

B35: SEQ ID NO: 484 (Y61, K at L31) (antibody, V domains shown)
VH: B1 VH
VL: B1 VL with T31S, N32K
Q: Which koff [1] does the source give for B35 here?
A: Its koff is 0.000331 s⁻¹.

B36: SEQ ID NO: 493 (Y61, S at L32) (antibody, V domains shown)
VH: B1 VH
VL: B1 VL with T31S, T33S
Q: B36 was tested. Which koff [1] did it give?
A: Its koff is 0.00191 s⁻¹.

B37: SEQ ID NO: 489 (Y61, M at L31) (antibody, V domains shown)
VH: B1 VH
VL: B1 VL with T31S, N32M
Q: For B37, which koff [1] is on record?
A: The koff was 0.000174 s⁻¹.

B38: SEQ ID NO: 490 (Y61, I at L31) (antibody, V domains shown)
VH: B1 VH
VL: B1 VL with T31S, N32I
Q: Which koff [1] does the source give for B38 here?
A: Its koff is 9.7e-05 s⁻¹.

B39: SEQ ID NO: 496 (Y61, K at L32) (antibody, V domains shown)
VH: B1 VH
VL: B1 VL with T31S, T33K
Q: B39 was tested. Which koff [1] did it give?
A: The koff was 0.000318 s⁻¹.
